Test results as given in patent publication US7176008 (MERCK, dated 2007).

Legend:
[1] = target: T1, activated thrombin-activatable fibrinolysis inhibitor (human TAFIa) (human, UniProt Q96IY4 115-423)
T1 construct: Purified from human serum in the presence of 5 mM epsilon-aminocaproic acid; also called carboxypeptidase U
T1 sequence (looked up): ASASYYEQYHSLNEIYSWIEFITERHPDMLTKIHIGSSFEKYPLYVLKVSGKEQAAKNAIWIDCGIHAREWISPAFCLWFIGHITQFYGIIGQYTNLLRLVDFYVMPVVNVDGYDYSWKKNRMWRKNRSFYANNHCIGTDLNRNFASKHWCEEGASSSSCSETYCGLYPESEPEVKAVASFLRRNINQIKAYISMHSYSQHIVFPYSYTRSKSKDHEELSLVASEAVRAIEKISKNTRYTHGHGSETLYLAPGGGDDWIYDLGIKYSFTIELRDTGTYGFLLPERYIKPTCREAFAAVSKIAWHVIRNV

human carboxypeptidase B = target: T2, human carboxypeptidase B (human, UniProt P15086 111-417)
T2 construct: also called CPB
T2 sequence (looked up): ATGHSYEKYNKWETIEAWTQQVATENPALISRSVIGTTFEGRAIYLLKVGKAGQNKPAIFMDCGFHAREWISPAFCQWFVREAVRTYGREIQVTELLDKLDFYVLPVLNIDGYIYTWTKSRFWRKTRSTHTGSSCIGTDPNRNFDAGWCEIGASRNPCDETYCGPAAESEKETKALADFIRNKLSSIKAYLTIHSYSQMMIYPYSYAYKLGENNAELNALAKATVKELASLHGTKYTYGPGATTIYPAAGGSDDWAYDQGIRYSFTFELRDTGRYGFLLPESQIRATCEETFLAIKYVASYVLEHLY

Binder: QQHADPICNKPCKTHDDCSGAWFCQACWNSARTCGPYVG (peptide, UniProt P01075 1-39, looked up, also called PCI) [potato carboxypeptidase inhibitor]
- binding result [1]: binds
- binding result (human carboxypeptidase B): binds
